Experiment [1] concerns the target T1, IL23R_huFC (human, UniProt Q5VWK5 24-353).
T1 sequence (looked up): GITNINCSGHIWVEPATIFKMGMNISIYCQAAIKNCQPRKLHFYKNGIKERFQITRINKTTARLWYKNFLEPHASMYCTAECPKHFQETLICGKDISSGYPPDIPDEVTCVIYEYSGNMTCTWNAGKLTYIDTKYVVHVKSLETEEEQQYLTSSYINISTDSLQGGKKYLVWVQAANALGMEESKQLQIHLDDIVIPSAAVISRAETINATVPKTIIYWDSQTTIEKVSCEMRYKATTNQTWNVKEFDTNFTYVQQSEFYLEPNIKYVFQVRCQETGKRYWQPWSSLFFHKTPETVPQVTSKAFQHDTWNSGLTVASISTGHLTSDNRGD
The experiment can be described thus: human ELISA vs IL-23. For orientation: An ELISA detects its analyte on a solid surface through an enzyme-linked reagent.

Experiment [2] deals with Rat IL-23R_huFC (rat). The experiment can be described thus: rat ELISA vs IL-23.
Experiment [3] concerns the target T2, Rat IL-23R_huFC (rat; human, UniProt F1LX96 39-369).
T2 sequence: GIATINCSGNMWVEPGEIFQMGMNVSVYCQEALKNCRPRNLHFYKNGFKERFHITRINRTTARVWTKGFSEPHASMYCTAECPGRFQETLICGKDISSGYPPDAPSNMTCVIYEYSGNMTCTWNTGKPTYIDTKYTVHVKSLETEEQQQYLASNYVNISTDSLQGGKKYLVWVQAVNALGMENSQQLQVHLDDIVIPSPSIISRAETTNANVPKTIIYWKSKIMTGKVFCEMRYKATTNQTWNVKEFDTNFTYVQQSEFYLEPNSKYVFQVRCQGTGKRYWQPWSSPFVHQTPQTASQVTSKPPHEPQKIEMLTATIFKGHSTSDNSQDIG
In words: rat IL-23R competitive ELISA.

Experiment [4] has as its target T3, IL23R_huFC (human, UniProt Q5VWK5 24-353).
T3 sequence (looked up): T1 sequence (looked up)
In words: IL23-IL23R competitive ELISA.

For experiment [5], the target named is T4, IL-23R on human cells (IL-23R-expressing DB cells; human NK cells) (human, UniProt Q5VWK5 24-629).
T4 sequence (looked up): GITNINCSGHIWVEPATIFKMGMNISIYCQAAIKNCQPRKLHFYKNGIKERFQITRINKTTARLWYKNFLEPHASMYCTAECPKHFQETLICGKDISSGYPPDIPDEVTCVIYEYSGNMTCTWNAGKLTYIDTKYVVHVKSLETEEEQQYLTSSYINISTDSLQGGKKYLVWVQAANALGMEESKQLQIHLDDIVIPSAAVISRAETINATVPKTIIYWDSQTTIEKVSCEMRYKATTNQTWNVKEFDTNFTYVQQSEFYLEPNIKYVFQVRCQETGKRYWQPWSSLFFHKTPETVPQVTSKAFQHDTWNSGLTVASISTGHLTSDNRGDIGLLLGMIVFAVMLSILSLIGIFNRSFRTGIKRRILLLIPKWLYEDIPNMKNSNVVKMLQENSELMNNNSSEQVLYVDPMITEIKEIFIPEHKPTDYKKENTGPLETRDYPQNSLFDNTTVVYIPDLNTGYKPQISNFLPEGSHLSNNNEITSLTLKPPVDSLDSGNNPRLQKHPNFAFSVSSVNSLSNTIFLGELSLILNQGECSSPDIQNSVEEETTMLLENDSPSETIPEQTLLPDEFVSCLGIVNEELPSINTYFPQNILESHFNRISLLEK
In words: cell-based or functional assay.

Experiment [6] addresses T1, IL23R_huFC. In words: human ELISA vs IL-23. This is another data set of the same source.
Experiment [7] deals with T4, IL-23R on human cells …. The experiment can be described thus: cell-based or functional assay. The source holds these as a separate data set.

*1 amine or outer side, *2 acyl side, *3 side chain or, on linkers, in order; H or OH if unused. Bridges are numbered along the chain shown (N, C = ends). [ ]: non-standard residue; d: D form. Phe(4-OMe) = 4-methoxy-L-phenylalanine (O-methyl-L-tyrosine), COc1ccc(C[C@H](N[*:1])C(=O)[*:2])cc1; Abu(4-yl) = O=C([C@H](CC[*:3])N[*:1])[*:2]; 2Nal = N[C@@H](Cc1ccc2ccccc2c1)C(=O)O; β3hR = N=C(N)NCCC[C@H](N)CC(=O)O; αMeK = C[C@](N)(CCCCN)C(=O)O; Abu = CC[C@H](N)C(=O)O; AEA = NCCOCC(=O)O

B1: Ac-Cyclo-[[Abu]RTWQC]-YWRKFG-[AEA]-[(D)Lys]-NH2 (peptide)
peptide: Ac-[Abu(4-yl)]RTWQCYWRKFG[AEA][dK]-NH2
modifications: thioether 1-6
SMILES: CC(=O)N[C@H]1CCSC[C@@H](C(=O)N[C@@H](Cc2ccc(O)cc2)C(=O)N[C@@H](Cc2c[nH]c3ccccc23)C(=O)N[C@@H](CCCNC(=N)N)C(=O)N[C@@H](CCCCN)C(=O)N[C@@H](Cc2ccccc2)C(=O)NCC(=O)NCCOCC(=O)N[C@H](CCCCN)C(N)=O)NC(=O)[C@H](CCC(N)=O)NC(=O)[C@H](Cc2c[nH]c3ccccc23)NC(=O)[C@H]([C@@H](C)O)NC(=O)[C@H](CCCNC(=N)N)NC1=O
Consider B1, for which the results for the IC50 in experiment [1] and in experiment [2] were 25 to 100 nM and 100 to 1000 nM, respectively.
CXTWQCYWRVFGXK (Ac-; [Cit]; [AEA]; [(D)Lys]; -NH2) [Ac-C-[Cit]-TWQCYWRVFG-[AEA]-[(D)Lys]-NH2] had an IC50 in experiment [3] of 76 nM.

B2: Ac-CQTWQCYW-[βhArg]-VNG-[AEA]-[(D)Lys]-NH2 (peptide)
peptide: Ac-CQTWQCYW[β3hR]VNG[AEA][dK]-NH2
modifications: disulfide 1-6
SMILES: CC(=O)N[C@H]1CSSC[C@@H](C(=O)N[C@@H](Cc2ccc(O)cc2)C(=O)N[C@@H](Cc2c[nH]c3ccccc23)C(=O)N[C@@H](CCCNC(=N)N)CC(=O)N[C@H](C(=O)N[C@@H](CC(N)=O)C(=O)NCC(=O)NCCOCC(=O)N[C@H](CCCCN)C(N)=O)C(C)C)NC(=O)[C@H](CCC(N)=O)NC(=O)[C@H](Cc2c[nH]c3ccccc23)NC(=O)[C@H]([C@@H](C)O)NC(=O)[C@H](CCC(N)=O)NC1=O
B2 gave a half-maximal inhibitory concentration (IC50) in experiment [4] of 922 nM.
With Ac-[Abu]QTWQC[Phe(4-OMe)][2Nal][dN]K(Ac)NG-NH2 (thioether 1-6) [Ac-Cyclo-[[Abu]-QTWQC]-[Phe(4-OMe)]-[2-Nal]-[(D)Asn]-[Lys(Ac)]-NG-NH2], the IC50 is 25 to 100 nM in experiment [1] and 100 to 1000 nM in experiment [2].
Consider Ac-[Abu]QTWQC[Phe(4-OMe)][2Nal][αMeK]ENG-NH2 (thioether 1-6) [Ac-Cyclo-[[Abu]-QTWQC]-[Phe(4-OMe)]-[2-Nal]-[α-MeLys]-ENG-NH2], for which the “pStat3 HTRF IC50” value in experiment [5] was under 10 nM. For the same molecule, the values for the IC50 in experiment [1] and in experiment [2] were 25 to 100 nM and 100 to 1000 nM, respectively.
Take CADWVCYFXXFGXK (not fully specified; Ac-; [Phe(CONH2)]; [Orn]; [Dap]; [AEA]; [(D)Lys]; -NH2) [Ac-CADWVCY-[Phe(CONH2)]-[Orn]-[Dap]-FG-[AEA]-[(D)Lys]-NH2]: the IC50 in experiment [4] is about 6000 nM.
The same measure, in the same setting: the same measure for CADWVCYFXXFGXK (not fully specified; Ac-; [hPhe]; [Orn]; [Dap]; [AEA]; [(D)Lys]; -NH2) [Ac-CADWVCY-[hPhe]-[Orn]-[Dap]-FG-[AEA]-[(D)Lys]-NH2]: 30000 nM.
On to XQTWQXFXKENG (as bracketed in name; thioether cyclo) [Ac-Cyclo-[[Abu]-QTWQ-[Pen]]-[Phe(4-OMe)]-[2-Nal]-[α-MeLys]-ENG-NH2], for which the IC50 in experiment [2] and in experiment [6] was 100 to 1000 nM in each case.
Turning to XQTWQXFXKKNG (as bracketed in name; thioether cyclo) [Ac-Cyclo-[[Abu]-QTWQ-[Pen]]-[Phe(4-OMe)]-[2-Nal][α-MeLys]-[Lys(Ac)]NG-NH2], the half-inhibitory concentration (IC50) in experiment [2] lay in the range of 100 to 1000 nM.
Still for that read-out and setting: the same measure for XQTWQCXXXKNG (as bracketed in name; thioether cyclo) [Ac-Cyclo-[[Abu]-QTWQC]-[2-Nal]-[2-Nal]-[α-MeOrn]-[Lys(Ac)]-NG-NH2]: 100 to 1000 nM.
In the case of Ac-CRTWQCYWRENGA[dK]-NH2 (cysteine pairing not given here) [Ac-CRTWQCYWRENGA-[(D)Lys]-NH2], the half-inhibitory concentration (IC50) in experiment [3] is 86 nM.
In turn, Ac-CRTWQCYWREYGA[dK]-NH2 (cysteine pairing not given here) [Ac-CRTWQCYWREYGA-[(D)Lys]-NH2] gave an IC50 in experiment [3] of 80 nM.
Still for that read-out and setting: the value for CXTWQCYWRVFGXK (Ac-; [AEA]; [(D)Lys]; -NH2) [Ac-C-CYWRVFG-[AEA]-[(D)Lys]-NH2] was 100 nM.
Still for that read-out and setting: the same measure for Ac-CQTWQCYWRVFG[AEA][dK]-NH2 (disulfide 1-6 (inferred)) [Ac-CQTWQCYWRVFG-[AEA]-[(D)Lys]-NH2]: 62 nM; for CRTWQCYWRVFGXK (not fully specified; Ac-; [N-MeArg]; [AEA]; [(D)Lys]; -NH2) [Ac-C-[N-MeArg]-TWQCYWRVFG-[AEA]-[(D)Lys]-NH2]: 192 nM.
Consider XNTWQXFXXKNN (as bracketed in name; Pen-Pen disulfide) [Ac-[Pen]-NTWQ-[Pen]-[Phe]4-(2-aminoethoxy)]-[2-Nal]-[Aib]-[Lys(Ac)]-NN-NH2], for which the “NK cell assay IC50 (IFNγ)” value in experiment [7] was under 10 nM.
In experiment [4], Ac-ARTWQ[MeCys]YWRKFG[AEA][dK]-NH2 (not fully specified; printed as Ac-ARTWQ-[MeCys]-YWRKFG-[AEA]-[(D)Lys]-NH2) [Ac-ARTWQ-[MeCys]-YWRKFG-[AEA]-[(D)Lys]-NH2] had an IC50 of 7570 nM.

Broadly, the IC50 is the concentration at which inhibition is half-maximal.

These data come from patent US20190300590A1 (PROTAGONIST THERAPEUTICS, published 2019).
